T1: human IFN receptor (human, UniProt P17181)
T1 sequence 1: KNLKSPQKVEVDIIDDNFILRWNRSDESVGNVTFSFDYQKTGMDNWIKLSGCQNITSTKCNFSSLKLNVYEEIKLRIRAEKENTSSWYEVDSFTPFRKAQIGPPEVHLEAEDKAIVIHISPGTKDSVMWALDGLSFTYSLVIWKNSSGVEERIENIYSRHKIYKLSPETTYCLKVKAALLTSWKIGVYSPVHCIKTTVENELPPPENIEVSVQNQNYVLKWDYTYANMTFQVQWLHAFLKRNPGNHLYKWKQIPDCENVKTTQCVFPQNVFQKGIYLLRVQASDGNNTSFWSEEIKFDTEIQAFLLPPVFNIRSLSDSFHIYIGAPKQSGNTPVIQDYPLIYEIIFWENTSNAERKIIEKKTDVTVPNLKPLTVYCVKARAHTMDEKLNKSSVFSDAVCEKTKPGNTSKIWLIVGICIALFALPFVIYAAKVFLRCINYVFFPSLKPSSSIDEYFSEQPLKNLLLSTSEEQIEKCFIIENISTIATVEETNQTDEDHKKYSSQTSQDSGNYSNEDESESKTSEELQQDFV
T1 sequence 2: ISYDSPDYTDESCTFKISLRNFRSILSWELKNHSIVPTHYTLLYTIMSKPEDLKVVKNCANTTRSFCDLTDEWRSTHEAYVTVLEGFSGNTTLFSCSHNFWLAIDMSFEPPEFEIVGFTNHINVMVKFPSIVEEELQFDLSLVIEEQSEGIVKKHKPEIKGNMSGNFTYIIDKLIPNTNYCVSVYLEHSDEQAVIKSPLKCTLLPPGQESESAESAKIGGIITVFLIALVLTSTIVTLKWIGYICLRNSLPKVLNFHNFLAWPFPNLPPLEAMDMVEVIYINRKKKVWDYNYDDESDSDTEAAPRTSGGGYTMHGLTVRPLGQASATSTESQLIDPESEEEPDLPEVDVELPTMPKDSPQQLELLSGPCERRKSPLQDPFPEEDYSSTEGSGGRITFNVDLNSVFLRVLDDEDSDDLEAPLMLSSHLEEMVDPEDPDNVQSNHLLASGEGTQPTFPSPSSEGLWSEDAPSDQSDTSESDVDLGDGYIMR


Target: T1, human IFN receptor
Test: cell-based or functional assay

Row | IC50 pg/ml (anti-proliferation, Daudi cells) [pg/mL] | Specific Activity IU/mg x 10^8, Anti-viral (viral cytopathic effect bioassay, A549 cells challenged with virus) [IU/mg] | Binder | Specific Activity IU/mg x 10^8, Anti-proliferation (Daudi cells, 72 hours, viable cells) [IU/mg]
1 |  | 4e+08 | MOD-9012 (IFNβ-ctpx2) (ligand) MSYNLLGFLQRSSNFQCQKLLWQLNGRLEYCLKDRMNFDIPEEIKQLQQFQKEDAALTIYEMLQNIFAIFRQDSSSTGWNETIVENLLANVYHQINHLKTVLEEKLEKEDFTRGKLMSSLHLKRYYGRILHYLKAKEYSHCAWTIVRVEILRNFYFINRLTGYLRNSSSSKAPPPSLPSPSRLPGPSDTPILPQSSSSKAPPPSLPSPSRLPGPSDTPILPQ | 
2 | 323 | 3.7e+08 | MOD-9016 (ctp-IFNβ-ctp) (ligand) SSSSKAPPPSLPSPSRLPGPSDTPILPQMSYNLLGFLQRSSNFQCQKLLWQLNGRLEYCLKDRMNFDIPEEIKQLQQFQKEDAALTIYEMLQNIFAIFRQDSSSTGWNETIVENLLANVYHQINHLKTVLEEKLEKEDFTRGKLMSSLHLKRYYGRILHYLKAKEYSHCAWTIVRVEILRNFYFINRLTGYLRNSSSSKAPPPSLPSPSRLPGPSDTPILPQ | 1.97e+08

Continued, binder first:

Row | Binder | IC50 pg/ml (anti-proliferation, Daudi cells) [pg/mL] | Specific Activity IU/mg x 10^8, Anti-viral (viral cytopathic effect bioassay, A549 cells challenged with virus) [IU/mg] | Specific Activity IU/mg x 10^8, Anti-proliferation (Daudi cells, 72 hours, viable cells) [IU/mg]
3 | MOD-9011 (IFNβ-ctp) (ligand) MSYNLLGFLQRSSNFQCQKLLWQLNGRLEYCLKDRMNFDIPEEIKQLQQFQKEDAALTIYEMLQNIFAIFRQDSSSTGWNETIVENLLANVYHQINHLKTVLEEKLEKEDFTRGKLMSSLHLKRYYGRILHYLKAKEYSHCAWTIVRVEILRNFYFINRLTGYLRNSSSSKAPPPSLPSPSRLPGPSDTPILPQ | 264 | 4e+08 | 2.41e+08
4 | Intl. Standard (IFN-β reference standard calibrated in International Units, National Institute of Allergy and Infectious Diseases (NIH)) (ligand) MSYNLLGFLQRSSNFQCQKLLWQLNGRLEYCLKDRMNFDIPEEIKQLQQFQKEDAALTIYEMLQNIFAIFRQDSSSTGWNETIVENLLANVYHQINHLKTVLEEKLEKEDFTRGKLMSSLHLKRYYGRILHYLKAKEYSHCAWTIVRVEILRNFYFINRLTGYLRN | 318 |  | 
5 | Human Interferon-β 1a-MOD-9010 (ligand) MSYNLLGFLQRSSNFQCQKLLWQLNGRLEYCLKDRMNFDIPEEIKQLQQFQKEDAALTIYEMLQNIFAIFRQDSSSTGWNETIVENLLANVYHQINHLKTVLEEKLEKEDFTRGKLMSSLHLKRYYGRILHYLKAKEYSHCAWTIVRVEILRNFYFINRLTGYLRN | 251 | 3.9e+08 | 
